# Laboratory results as given in the RNAGym collection of RNA variant scans (doi:10.1073/pnas.2313332121).
# B1: TPR t1 (parent)
# chain: GACCAAUCUGCCCUCAGAGCUCGAGAACAUCUUCGGAUGCAGAGGAGGCAGGCUUCGGUGGCGCGAUAGCGCCAACGUCCUCAACCUCCAAUGCAUCCCACCACAUGAUGAUGCCUGAAGAGCCUUGGUUUUUUG
# Variants of: B1
# Experiment: polymerase ribozyme fitness, log enrichment relative to wild type (log ratio); higher = more active; in vitro selection for triplet polymerase activity
# How it was run: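 Streptavidin-bead capture of gel-excised extended constructs, followed by RT-PCR, closed a single triplicate in vitro selection round. That round began by annealing PCR-built, transcribed mutant libraries of each subunit of a heterodimeric triplet polymerase ribozyme with a biotinylated primer, the partner subunit and triplets, then incubating them frozen at −7 °C. After Illumina sequencing of inputs and outputs, genotypes needed ≥10 input reads and ≥1 read per output. Fitness is the base-2 logarithm of genotype enrichment over wild-type enrichment, using inverse-variance-weighted replicate averages.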
row,Variant,polymerase ribozyme fitness (log ratio)
1,A29U C49A C64U C82A C97G A121G U133C,-3.41
2,A29U G42U G52A U109G,-2.63
3,A29G G77A U78A C123A,-2.27
4,A29U C73A A118U,-0.992
5,U32A G58A C94A,-5.83
6,C31G A41C G58C C62U,-8.8
7,A29U C72G C104U G120C,-0.531
8,C31U G47U C73A U112C G120C,-5.43
9,C31G G52U G77A G117U,-6.19
10,A29G G58C G120U,-1.73
11,A29U C70G U125G,-3.65
12,C31U C73G C89U,-5.24
13,A29U C89U,-2.05
14,U30C G61A,-2.02
15,C31U U32A G47C G61C G63A C115U,-7.14
16,C31A C72U,-5.82
17,A29U C94A,-1.79
18,U32C,0.135
19,U32A,-3.82
20,C31U G51A C73U U106A,-3.91
21,A29G G117A,-2.22
22,A29G G117C,-3.99
23,C31A C115A,-4.37
24,C31U A37G G69U,-3.72

row,Variant,polymerase ribozyme fitness (log ratio)
1,A29U C72U U92C,-2.98
2,A29U U109C C124A,-3.97
3,A29U C40A U109C U130G,-6.92
4,C31U G63C,-5.08
5,C31U G63U,-3.29
6,A29G C94A,-2.09
7,U30C C115A,-2.84
8,C31A G61A C94U C97U C123U,-6.35
9,A29U U78A,-1.8
10,A29U A74C,-1.73
11,C31U G39C G44U C85G G110C,-6.47
12,A29U A118U,-1.3
13,A29G G52U C70U U125A,-2.42
14,A29G G47A G51U C123G U129A U133G,-5.68
15,C31U A37G,-3.78
16,A29U G45U A74G,-3.27
17,U30G C72U C80A A108C,-2.77
18,C31G G42U G113U,-5.66
19,C31A U54A C89A A121U,-7.04
20,U30C C73U,-2.48
21,U30C G60A,-1.98
22,C31U A111G,-5.05
23,A29U A50G U81C C114U,-1.72
24,U30A A118U,-5.54

row,Variant,polymerase ribozyme fitness (log ratio)
1,C31U G44C G60A,-5.87
2,C31U G48A,-5.2
3,U32C A84U C123G U131C,1.03
4,U30C G44A C53G,-5.41
5,C31U U38A A68C C72U C76G U112A G117C,-6.6
6,U32A U112A,-2.37
7,A29U G36U U112C,-1.39
8,U30C C64G C99G C123G,-7.65
9,A29U G44U,-3.06
10,U32C C34U G39C,-5.23
11,A29G G71U,-1.72
12,A29G G63C,-1.45
13,A29U G39U G61A G122A,-3.23
14,U30C U106A,-1.11
15,A29U G44A C72U G110A U125A,-5.47
16,U30G C34G G35C A41U C53U C76U C124G,-8.38
17,C31U U87C G113U C123G U132A,-5.61
18,A29U C73G,-1.92
19,A29U C56A,-2.25
20,A29U C56U,-1.54
21,U32C A37U U38A G48U U96G,-1.88
22,U30C G63U C85U,-5.85
23,A29G U81C A100U,-3.08
24,A29U U130G,-2.07

row,Variant,polymerase ribozyme fitness (log ratio)
1,A29U G44U G45A,-4.25
2,A29U G45C C115A U133A,-3.42
3,C31G U38G G51U G52C C94G G120U,-6.47
4,A29U A84G U87G,-2.37
5,A29U G48U C72G G120A,-3.12
6,U30G,-5.83
7,U30C,-1.66
8,U30A,-4.65
9,C31U A46G C49A G60A A105C G110A,-5.83
10,A29G C97A U112C,-4.92
11,U32A G44A U87C,-5.32
12,A29U C40G G52C G69C A121G U132C,-2.06
13,U30A C72G,-6.04
14,A29U G45U G69U,-2.7
15,C31U G63A C85U C124G,-4.75
16,A29U C114U G120C C123U G128C,-4.45
17,U32A A50G C85U U87A,-4.8
18,C31U C85A U106A,-2.67
19,U30C C97G A108U U112A C124G,-7.16
20,U30G C79G U106A,-3.54
21,A29U A37U G44C C72G C114U,-4.21
22,A29G G42A G69C,-4.23
23,A29U C97A A121U,-4.33
24,C31G G69U A91G G120A U129A,-6.61

row,Variant,polymerase ribozyme fitness (log ratio)
1,A29G C72U G135U,-1.91
2,U30C G71A,-2.58
3,A29U U112A U131A,-1.03
4,A29G G45A A121C G128C,-2.4
5,U32C A50G A118U U131G,-1.27
6,U30A C56A C82A U87A C114G G122A,-6.34
7,A29G C72G,-1.98
8,A29G C72U,-1.98
9,C31A C72U U92G G113U,-6.05
10,U30C A43U C56U G58U U112G,-6.19
11,U30C C56G G60U A84C,-3.79
12,U30C U87A,-2.98
13,C31U A68U C114A G117C C124A,-5.73
14,C31G G48U C72U C86G A100C G120C,-7.02
15,C31G C124A U129G,-6.34
16,A29U G61A G127C,-3.2
17,A29G G110A,-2.21
18,A29U,-1.67
19,A29U G52U C76A C123U G135U,-3.34
20,A29G U126A,-2.42
21,A29G G77U,-1.38
22,U30C C49G G63U C70U A84C C114U,-6.54
23,C31G U55C G60A U116C,-6.66
24,C31A C73A,-5.35

row,Variant,polymerase ribozyme fitness (log ratio)
1,U32A C88A C89A A119G,-4.6
2,C31U A37U C49G A84U C104U G113U U133G,-6.55
3,A29U C56U C123U,-0.0509
4,A29U C34U G47U C53U,-6.51
5,U30G G60C U112A G127U U129G,-5.06
6,A29U C31G C97G U112A U129G,-6.42
7,A29U A46G G60U A91C,-2.59
8,C31U U112A,-3.16
9,C31A U112C,-3.86
10,U30C A37C C73G U96A C115U,-5.56
11,A29U G60C C89A G110A,-5.77
12,U32C A75G C124A,1.81
13,A29G G52A G71U C73U,-4.52
14,C31G A37U G71A C76U U78G A105C G110C,-6.15
15,U32C C49G G52C U96C,-1.52
16,A29G G51A,-3.06
17,A29G G39U C94G,-2.78
18,U30C A43U,-4.23
19,A29U C40U C72G A84C A100C U106A A119U,-3.21
20,C31G C56U G61A G69A U87G C123G,-7.19
21,C31G G122A,-5.66
22,A29U G45C G61A A111G C124G,-3.05
23,C31G C53A G107C,-1.38
24,A29G G39U C85U C89U,-4.23

row,Variant,polymerase ribozyme fitness (log ratio)
1,A29U G45U,-3.1
2,A29U G39U A74U A91U U132A,-4.44
3,U32A G45C U54A G61U,-3.78
4,C31G C80G A100U C101G A103U G120C,-7.23
5,C31A A37U C88A A111G U112G U129A,-7.12
6,U30G C56G U106A U125A,-2.32
7,C31A U54C G60U A121C,-5.42
8,A29G G60C A74U,-3.15
9,C31U C53G C124A,-3.5
10,A29U G47A C62U C82U G117C,-5.79
11,C31G G36U C49U U112G,-6.99
12,C31A G44U G47C U78G G120C G127U,-6.6
13,A29U G52A,-1.8
14,A29G U92A,-3.71
15,U30C C124U,-1.4
16,C31G G58U G61A C62G A83U U109A C124U,-6.38
17,A29G G120A,-1.03
18,C31U C49U C76G U81G U96A C104U A108U C124G U130C,-5.23
19,U32C C56A,-1.29
20,C31U C53G,-3.58
21,A29U G39A G117A,-2.71
22,U30C C56G C70U C79A C89U C98U C101A G110C,-6.87
23,U30A G52C,-5.66
